What all share (assay type): in vivo
The subject of assay [1] is soybean cyst nematode (SCN, Heterodera glycines). As to the kind of experiment: Controlled environment soybean seed treatment trial: SCN cysts on roots. The conditions noted are these: for % Comparison to Control: base control = 100%.
The test system of assay [2] is Fall armyworm (Spodoptera frugiperda). In words: Diet-surface overlay (DSO) bioassay. The conditions noted are these: number of individuals. On the procedure: (§1) Diet-surface overlay bioassays are conducted with artificial diet mixes without antibiotics in 1.5 cm^2 cell bioassay trays(s). Artificial diets are commercially available from Southland Products Inc. Diets were prepared by dispersing 0.5 mL of molten diet to each 1.5 cm^2 cell. After solidification, 0.1 mL enzyme treatments were dispersed on top of diet in each cell and the tray was gently rocked in an orbital shaker to spread the liquid uniformly over the diet surface. Trays were placed under clean airflow until the surface of each cell was uniformly dried. One or two 16-cell sections were used per treatment (the number in larvae treated was 16 or 32).
(§2) One healthy first instar larva was placed into each treatment cell, each 16-cell section was covered with a re-sealable lid and incubated at 27° C. and light-dark period of 16:8 hrs. After 7 days, and according to the species, the number of individuals in the following developmental categories was recorded.
(§3) Negative/untreated controls were treated with filtered water and positive controls were treated with lethal doses of Bacillus thuringiensis subsp. Kurstaki (Btk) spores at 1000 ppm.

The test system of assay [3] is Btk resistant Diamondback moth. As to the kind of experiment: Diet-surface overlay (DSO) bioassay. The conditions noted are these: Table 47, Btk resistant. On the procedure:
as §1, §2
Diamondback moth (Plutella xylostella): Dead Larva (lack of movement), Larva Stage I (≤50% relative size), Larva Stage II (100% relative size, full size), Early Pupa (light green color), Late Pupa (light-dark brown color), and Adult.
as §3
However, both neutral proteases reduced the number of individuals reaching adult stage.

The mark [4] stands for this setting: Table 50, esterases, n=32, dose per treatment in U/mL Diet.

B1: Chitinase C (protein, listed as Bacillus thuringiensis)
chain: DSPKQSQKIVGYFPSWGVYGRNYQVADIDASKLTHLNYAFADICWKGKHGNPSTHPDNPNKQTWNCKESGVPLQNKEVPNGTLVLGEPWADVTKSYPGSGTTWEDCDKYARCGNFGELKRLKAKYPHLKTIISVGGWTWSNRFSDMAADEKTRKVFAESTVAFLRAYGFDGVDLDWEYPGVETIPGGSYRPEDKQNFTLLLQDVRNALNKAGAEDGKQYLLTIASGASQRYADHTELKKISQILDWINIMTYDFHGGWEATSNHNAALYKDPNDPAANTNFYVDGAIDVYTNEGVPVDKLVLGVPFYGRGWKSCGKENNGQYQPCKPGSDGKLASKGTWDDYSTGDTGVYDYGDLTANYVNKNGFVRYWNDTAKVPYLYNATTGTFISYDDNESMKYKTDYIKTKGLSGAMFWELSGDCRTSPKYSCSGPKLLDTLVKELLGGPINQKDTEPPTNVKNIIVTNKTSSSVQLSWTASTDNVGVTEYEITAGEEKWSATTNSITIKNLKPNTEYTFSVIAKDASGNKSHPTALTVKTDEANTTPPDGNGTATFSVTSNWGSGYNFSIIIKNNGTIPIKNWKLEFDYSGNLTQVWDSKISSKTNNHYVITNAGWNGEIPPGGSITIGGAGTGNPAELLNAVISEN
Regarding B1, in assay [1] (Table 18, change in brackets), the “% Comparison to Control” value was 78% (−22%). The “Average cysts per g of root tissue” value in assay [1] (Table 18, free enzyme seed treatment, base control 58.3) is recorded as 45.7 cysts per g of root tissue.

B2: Trichoderma lixii trypsin-like protease (protein, listed as Trichoderma lixii)
chain: AAITPRGSDIVGGTTAALGEFPYIVSLSTGGSHFCGGVLIDSRTVVTAGHCTIDQRASSVKVRAGTLTWASGGTQVGVSSLTLHPSYTVDSQGVPDNDVGVWHLATAIPTSSTIGYATLPASGSDPAAGTTLTVAGWGTTSENSNSLPSTLRKVSVPVVARATCDSDYDGEISNNMFCAAVAAGGKDSCSGDSGGPIIDPSGTLVGVVSWGQGCAERGFPGVYTRLGNYVSFINSNRG
modifications: H182 trypsin-like protease
Consider B2, for which, in assay [1] (Table 11), the “% Comparison to Control” value came out at 26%. The “Average cysts per g of root tissue” value in assay [1] (Table 11, free enzyme seed treatment 2 fl oz/unit, soybean P18A98X, ILEVO 0.15 mg AI/seed, 3 weeks after inoculation, base control 71.4) is 18.6 cysts per g of root tissue.

B3: Pseudomonas sp. esterase free enzyme concentrate (SEQ ID NO: 248): free enzyme concentrated in an Amicon Ultra 4K filter unit (protein, listed as Pseudomonas sp.)
chain: MTEPLILQPVKPADACVIWLHGLGADRYDFLPVAEALQEILLSTRFVLPQAPTRPVTINGGYAMPSWYDIKAMSPARAIDRDELEASADRIIELIEEQRSSGIDASRIFLAGFSQGGAVVYHTAFLKWQGPLGGVLALSTYAPTFSDELELSASQQRIPVLSLHGQFDNVVQNSMGRTAYEYLKAHGVTVTWQEYPMEHEVLPEEIRDIGTWLSERLR
For B3, the “% Comparison to Control” value in assay [1] (Table 16, change in brackets) is 75% (−25%). Moreover, the “Average cysts per g of root tissue” value in assay [1] (Table 16, seed treatment, soybean 2830E3, concentrate = 4× volumetric concentration, base control 244.3) was 182.1 cysts per g of root tissue.

B4: H6-pnbA (SEQ ID NO: 94) (protein, listed as Bacillus subtilis)
chain: MTHQIVTTQYGKVKGTTENGVHKWKGIPYAKPPVGQWRFKAPEPPEVWEDVLDATAYGSICPQPSDLLSLSYTELPRQSEDCLYVNVFAPDTPSKNLPVMVWIHGGAFYLGAGSEPLYDGSKLAAQGEVIVVTLNYRLGPFGFLHLSSFNEAYSDNLGLLDQAAALKWVRENISAFGGDPDNVTVFGESAGGMSIAALLAMPAAKGLFQKAIMESGASRTMTKEQAASTSAAFLQVLGINEGQLDKLHTVSAEDLLKAADQLRIAEKENIFQLFFQPALDPKTLPEEPEKAIAEGAASGIPLLIGTTRDEGYLFFTPDSDVHSQETLDAALEYLLGKPLAEKVADLYPRSLESQIHMMTDLLFWRPAVAYASAQSHYAPVWMYRFDWHPKKPPYNKAFHALELPFVFGNLDGLERMAKAEITDEVKQLSHTIQSAWITFAKTGNPSTEAVNWPAYHEETRETLILDSEITIENDPESEKRQKLFPSKGE
modifications: Esterase (pnbA)
Take B4: in assay [2] (Table 50, esterases, n=32), the “Larva Stage I” value was found to be 0, the “Larva Stage II” value is on record as 0, the “Larva Stage III” value came out at 15 and the “Larva Stage IV” value was determined as 17. Also, the “Dead Larva” value in assay [2] (setting [4]) worked out at 0.

B5: Bacillus thuringiensis Lipase 2 (protein, listed as Bacillus thuringiensis)
chain: EVVKELGKGFPDTEVFTPGEWFLGQKPANYDENKPPILFVQGRNGNADSWYGKTVYHDINDMYDYALKAGYQTVFIQLYDAAGKGSASQWDNGKLLAQKLEEIYNYFGKKVNIVAHSKGGIDTQAALVEYGANRFVGNVITLATPHHGSNLADLSYSWWAGWLASILGQKDDGTYSLQIGEMAKFRSIIDNNPAAKLNRYYTATGTSWGPTFSALSMGGLYLSSYGSNDGLVNEWSAKLSYGTHLFTDSRFDHDNIRKGSAVFARIEPYLRTTNVGLPALVASSTSSNEDLEQLNTTSNQNILGGELPQNQWIEQSISVDKKAEGIVSVLTASSDVEVQMVSPKGKIYANKDSAITTGEGESFFNRATIRTFKFDKLEVGEWKIKMMAKQSKDAYLVVSDYKDDAPFVLRMPTKVKINKPEYKLKKSPVAPEMKGDLSITVRVVNKEGKLVSEFNELQNVNTNTFTGALKDIKQPGVYNVTMDIKGMNKEGKPYNRTIVKSVYVEK
As for B5, the “% Comparison to Control” value in assay [1] (Table 20, change in brackets) is on record as 57% (−43%). In assay [1] (Table 20, free enzyme seed treatment, soybean 2830E3, base control 459.7), the “Average cysts per g of root tissue” value is given as 264.3 cysts per g of root tissue.

B6: Bacillus thuringiensis Lipase 1 (protein, listed as Bacillus thuringiensis)
chain: YGFVSGVNDVLNPKASNLIKKTDVVAKEKKKTGTLQIVSLGDSLTRGVGDKEGIGYVGRMKEDLQKDYKQKIALTNLAVSGAKMPDLLKQIESNGAQYSIKQADVIVLTIGGNDLFPGWESLGKIDLETYRPDTETFQNEAKKIIEEIRKLNTDSPIFWLGLYNPFEDVEDLKGSSNIVVDWNASLEKLALNDKNVYITPTFDLFQNRGKDLLYSDHFHPNEVGYTYMAERLVQNVVSKLKLEQGGVK
As to B6, the “% Comparison to Control” value in assay [1] (Table 19, change in brackets) is listed as 75% (−25%). In addition, the “Average cysts per g of root tissue” value in assay [1] (Table 19, free enzyme seed treatment, soybean 2830E3, base control 442.5) is reported as 332.0 cysts per g of root tissue.

B7: H6-pytH (SEQ ID NO: 95) (protein, listed as Sphingobium wenxiniae)
chain: MTVTDIILIHGALNRGACYDAVVPLLEARGYRVHAPDLTGHTPGDGGHLSVVDMEHYTRPVADILARAEGQSILLGHSLGGASISWLAQHHPDKVAGLIYLTAVLTAPGITPETFVLPGEPNRGTPHALDLIQPVDEGRGLQADFSRLERLREVFMGDYPGEGMPPAEQFIQTQSTVPFGTPNPMEGRALEIPRLYIEALDDVVIPIAVQRQMQKEFPGPVAVVSLPASHAPYYSMPERLAEAIADFADAPAEYRQTATKAGPDRPAGADGGRADRADLP
modifications: Esterase (pytH)
B7: in assay [2] (Table 50, esterases, n=32), the “Larva Stage I” value is recorded as 0, the “Larva Stage II” value was 0, the “Larva Stage III” value amounted to 13 and the “Larva Stage IV” value worked out at 19. Moreover, the “Dead Larva” value in assay [2] (setting [4]) turned out to be 0.

B8: Bacillus pumulis Collagenase B (ColB) (protein, listed as Bacillus pumulis, listed as Bacillus pumilus)
chain: IVNGKRVITKKPELLAPAGNLEKLKIAVHYGADAVFIGGQEYGLRSNADNFTIEEIAEGVEFAKKYGAKIYVTTNIFAHNENMDGLEDYLKALGDANVAGIIVADPLIIETCRRVAPNVEVHLSTQQSLSNWKAVQFWKEEGLDRVVLARETSALEIREMKEKVDIEIESFIHGAMCIAYSGRCVLSNHMTARDSNRGGCCQSCRWDYDLYQTDGANAVALYGEEDAPFAMSPKDLKLIESIPKMIEMGIDSLKIEGRMKSIHYVATVVSVYRKVIDAYCADPENFVIQKEWLEELDKCANRDTATAFFEGTPGYEEQMFGEHAKKTTYDFVGLVLNYDEDTQMVTLQQRNFFKKGDEVEFFGPEIENFTHTIETIWDEDGNELDAARHPLQIVKFKLDKKIYPSNMMRKGK
modifications: Collagenase B (ColB)
In the case of B8, the “% Comparison to Control” value in assay [1] (Table 22, change in brackets) is reported as 15% (−85%). For the same molecule, the “Average cysts per g of root tissue” value in assay [1] (Table 22, free enzyme seed treatment, soybean 2830E3, base control 470.7) is on record as 70.9 cysts per g of root tissue.

B9: Akanthomyces lecanii Acidic Chitinase 1 (Chit1) (protein, listed as Akanthomyces lecanii)
chain: MAKCTSPDRKCPAPLIDAPINSFMTDGWADTDIHWEGDSWNDSGTNIYGCLKQLNILKKHNRNFKVLLSIGGWTYSSNFPAPASTPEGRDTFAKSCVELVKNLGFDGIDIDWEYPKTAEEAGHFVELLAEVRKQLDEYSARAANNYHFELSVACPAGPDNFQKLNISGMDAYLDFWNLMAYDYAGSWDKNSGHQANLYPCKDAPGCTPFSTVAAVDYYTSNGVSPDKLVLGMPLYGRAFENCDGIGQPFQGVGQGTWEQGVYDYKKLPLEGAEEHKDDDSCATYCHNAESRTLVTYDTPELAKTKADFIKERGLGGGMWWESSADKAGDDSLIQVVVSELGGPEALKQQQNCISYPETKYDNLRDGLPDN
modifications: Acidic Chitinase 1 (Chit1-H195)
B9: in assay [2] (Table 48, chitinases, n = 32), the “Larva Stage I” value was 4, the “Larva Stage II” value was determined as 5, the “Larva Stage III” value came out at 8 and the “Larva Stage IV” value was 8. The “Dead Larva” value in assay [2] (Table 48, chitinases, n = 32, dose per treatment in mU/mL Diet) stood at 7. Besides, the “Dead Larva” value in assay [3] (individuals of n = 32 after 7 days, mU/mL diet: SEQ 182 3.7, SEQ 185 0.6, water 1) was found to be 2. In assay [3] (n = 32, doses as E97, water 0), the “Early Pupa” value came to 8, the “Larva Stage I” value is reported as 2 and the “Larva Stage II” value turned out to be 2. This molecule had an Adult in assay [3] (n = 32, doses as E97, water 7) of 1. Also, the “Late Pupa” value in assay [3] (n = 32, doses as E97, water 24) was 17.

Values taken from patent US20240324599A1, “PESTICIDAL ENZYMES FOR USE ON NEMATODES, INSECTS, AND MOLLUSKS” (priority 2023, published 2024).
